Assays:
Details in all cases: remark: other sources report otherwise
[1] = biological target: T1, Fas with the death domain, CFP and YFP fusions (human), P25445; assay: CFP dequenching after YFP photobleaching, fluorescence microscope
T1 chain: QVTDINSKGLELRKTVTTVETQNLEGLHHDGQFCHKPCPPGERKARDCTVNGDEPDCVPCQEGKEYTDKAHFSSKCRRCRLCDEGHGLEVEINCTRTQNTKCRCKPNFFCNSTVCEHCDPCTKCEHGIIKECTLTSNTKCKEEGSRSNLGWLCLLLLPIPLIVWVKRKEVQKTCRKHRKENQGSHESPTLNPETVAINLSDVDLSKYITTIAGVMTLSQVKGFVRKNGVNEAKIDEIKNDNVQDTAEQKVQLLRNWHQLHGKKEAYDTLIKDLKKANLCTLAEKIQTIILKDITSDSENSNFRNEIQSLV

[2] = biological target: T2, Fas (endogenous, native receptor on T lymphoma cells), P25445; assay: DTSSP crosslinking of H9 lymphoma cells, anti-Fas Western blot of deglycosylated lysates
T2 chain: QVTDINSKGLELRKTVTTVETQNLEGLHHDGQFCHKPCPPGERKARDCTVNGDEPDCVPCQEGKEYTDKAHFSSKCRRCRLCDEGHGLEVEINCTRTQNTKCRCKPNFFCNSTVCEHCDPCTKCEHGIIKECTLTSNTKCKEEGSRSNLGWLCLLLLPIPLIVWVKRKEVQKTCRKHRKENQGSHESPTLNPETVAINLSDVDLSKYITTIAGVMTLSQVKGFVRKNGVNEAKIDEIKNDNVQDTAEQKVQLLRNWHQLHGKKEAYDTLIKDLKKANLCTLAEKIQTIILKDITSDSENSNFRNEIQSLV

[3] = biological target: T3, p60 TNFR (endogenous), P19438; assay: DTSSP crosslinking of H9 cells with or without TNFα, non-reducing Western blot
T3 chain: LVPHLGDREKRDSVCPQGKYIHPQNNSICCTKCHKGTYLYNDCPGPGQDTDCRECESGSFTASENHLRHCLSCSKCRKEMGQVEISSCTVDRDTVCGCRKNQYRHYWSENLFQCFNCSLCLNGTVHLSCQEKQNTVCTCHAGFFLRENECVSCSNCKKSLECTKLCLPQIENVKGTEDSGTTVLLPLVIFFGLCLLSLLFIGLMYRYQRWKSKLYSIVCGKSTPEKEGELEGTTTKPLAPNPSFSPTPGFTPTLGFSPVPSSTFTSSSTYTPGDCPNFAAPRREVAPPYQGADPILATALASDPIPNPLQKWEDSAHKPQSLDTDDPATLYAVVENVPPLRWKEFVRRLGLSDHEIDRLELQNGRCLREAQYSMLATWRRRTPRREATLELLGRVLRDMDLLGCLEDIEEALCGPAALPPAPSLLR

B1: Fas with the death domain, CFP and YFP fusions, P25445 26-335 (receptor, human, UniProt P25445 26-335, looked up, not shown: large carriers)
chain: QVTDINSKGLELRKTVTTVETQNLEGLHHDGQFCHKPCPPGERKARDCTVNGDEPDCVPCQEGKEYTDKAHFSSKCRRCRLCDEGHGLEVEINCTRTQNTKCRCKPNFFCNSTVCEHCDPCTKCEHGIIKECTLTSNTKCKEEGSRSNLGWLCLLLLPIPLIVWVKRKEVQKTCRKHRKENQGSHESPTLNPETVAINLSDVDLSKYITTIAGVMTLSQVKGFVRKNGVNEAKIDEIKNDNVQDTAEQKVQLLRNWHQLHGKKEAYDTLIKDLKKANLCTLAEKIQTIILKDITSDSENSNFRNEIQSLV
FRET efficiency [1]: 27%

B2: Fas (endogenous, native receptor on T lymphoma cells), P25445 26-335 (receptor, UniProt P25445 26-335, looked up)
chain: QVTDINSKGLELRKTVTTVETQNLEGLHHDGQFCHKPCPPGERKARDCTVNGDEPDCVPCQEGKEYTDKAHFSSKCRRCRLCDEGHGLEVEINCTRTQNTKCRCKPNFFCNSTVCEHCDPCTKCEHGIIKECTLTSNTKCKEEGSRSNLGWLCLLLLPIPLIVWVKRKEVQKTCRKHRKENQGSHESPTLNPETVAINLSDVDLSKYITTIAGVMTLSQVKGFVRKNGVNEAKIDEIKNDNVQDTAEQKVQLLRNWHQLHGKKEAYDTLIKDLKKANLCTLAEKIQTIILKDITSDSENSNFRNEIQSLV
percent of chains cross-linked as trimers (densitometry) [2]: 60%

B3: p60 TNFR (endogenous), P19438 30-455 (receptor, UniProt P19438 30-455, looked up)
chain: LVPHLGDREKRDSVCPQGKYIHPQNNSICCTKCHKGTYLYNDCPGPGQDTDCRECESGSFTASENHLRHCLSCSKCRKEMGQVEISSCTVDRDTVCGCRKNQYRHYWSENLFQCFNCSLCLNGTVHLSCQEKQNTVCTCHAGFFLRENECVSCSNCKKSLECTKLCLPQIENVKGTEDSGTTVLLPLVIFFGLCLLSLLFIGLMYRYQRWKSKLYSIVCGKSTPEKEGELEGTTTKPLAPNPSFSPTPGFTPTLGFSPVPSSTFTSSSTYTPGDCPNFAAPRREVAPPYQGADPILATALASDPIPNPLQKWEDSAHKPQSLDTDDPATLYAVVENVPPLRWKEFVRRLGLSDHEIDRLELQNGRCLREAQYSMLATWRRRTPRREATLELLGRVLRDMDLLGCLEDIEEALCGPAALPPAPSLLR
percent of chains cross-linked as apparent trimers and higher order complexes [3]: 15 to 20%

— patent US20030108992A1
